Data reported in patent publication US20120108504A1 (TEMPLE UNIVERSITY OF THE COMMONWEALTH SYSTEM OF HIGHER …, published 2012).
Non-standard residues stand in square brackets, D forms with d. No end group written: not given here. *: point of attachment. αGalNAc = CC(=O)N[C@@H]1[C@@H](O)[C@@H](O)[C@@H](CO)O[C@@H]1*; Tyr(3,5-I2) = N[C@@H](Cc1cc(I)c(O)c(I)c1)C(=O)O; Ahx = NCCCCCC(=O)O

Target: T1, leptin receptor (ObR) (human, UniProt P48357 22-1165)
T1 sequence: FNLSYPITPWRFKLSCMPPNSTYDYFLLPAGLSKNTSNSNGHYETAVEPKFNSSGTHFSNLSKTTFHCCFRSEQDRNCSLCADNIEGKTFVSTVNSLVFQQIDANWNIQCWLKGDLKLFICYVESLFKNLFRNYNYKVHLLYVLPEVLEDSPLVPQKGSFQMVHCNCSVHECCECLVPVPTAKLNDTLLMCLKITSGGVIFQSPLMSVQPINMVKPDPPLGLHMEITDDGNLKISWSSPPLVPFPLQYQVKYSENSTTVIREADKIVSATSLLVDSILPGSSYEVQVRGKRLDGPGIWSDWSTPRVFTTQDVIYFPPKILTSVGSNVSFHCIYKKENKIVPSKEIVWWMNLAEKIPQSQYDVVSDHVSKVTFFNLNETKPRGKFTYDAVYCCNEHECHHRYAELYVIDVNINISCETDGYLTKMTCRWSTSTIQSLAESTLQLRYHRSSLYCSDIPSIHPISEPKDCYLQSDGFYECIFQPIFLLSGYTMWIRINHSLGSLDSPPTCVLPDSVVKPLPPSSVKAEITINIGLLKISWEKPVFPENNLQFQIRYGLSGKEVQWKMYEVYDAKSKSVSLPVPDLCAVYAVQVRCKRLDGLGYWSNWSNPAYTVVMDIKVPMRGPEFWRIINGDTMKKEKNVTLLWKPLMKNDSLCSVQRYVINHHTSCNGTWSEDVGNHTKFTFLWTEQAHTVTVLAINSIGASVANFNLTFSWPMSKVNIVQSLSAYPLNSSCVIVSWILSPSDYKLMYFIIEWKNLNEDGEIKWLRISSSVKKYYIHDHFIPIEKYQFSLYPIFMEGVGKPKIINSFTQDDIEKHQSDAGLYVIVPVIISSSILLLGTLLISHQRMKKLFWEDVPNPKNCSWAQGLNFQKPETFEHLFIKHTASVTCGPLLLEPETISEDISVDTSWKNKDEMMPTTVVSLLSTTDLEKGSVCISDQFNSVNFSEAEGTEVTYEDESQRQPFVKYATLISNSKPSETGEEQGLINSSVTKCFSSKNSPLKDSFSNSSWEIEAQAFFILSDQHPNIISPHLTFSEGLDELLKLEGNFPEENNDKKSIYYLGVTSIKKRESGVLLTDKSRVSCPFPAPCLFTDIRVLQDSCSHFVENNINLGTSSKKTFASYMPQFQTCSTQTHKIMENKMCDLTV
Assay: cell-based or functional assay

B1: Compound (1) [Tyr(I2)-Ser-Thr(α-GalNAc)-Glu-Val-Val-Ala-Leu-Ser-Arg-AcpNH2] (peptide)
peptide: [Tyr(3,5-I2)]ST(αGalNAc)EVVALSR[Ahx]-NH2
- EC50 (nM), proliferation of ObR-positive LN229 glioblastoma cells, no exogenous leptin: < 1 nM
- IC50 (nM), inhibition of leptin-induced (12 nM leptin) proliferation of ObR-positive LN229 cells: 100 nM
